# B1: Pol IV DNA polymerase of Escherichia coli (protein)
# chain: MRKIIHVDMDCFFAAVEMRDNPALRDIPIAIGGSRERRGVISTANYPARKFGVRSAMPTGMALKLCPHLTLLPGRFDAYKEASNHIREIFSRYTSRIEPLSLDEAYLDVTDSVHCHGSATLIAQEIRQTIFNELQLTASAGVAPVKFLAKIASDMNKPNGQFVITPAEVPAFLQTLPLAKIPGVGKVSAAKLEAMGLRTCGDVQKCDLVMLLKRFGKFGRILWERSQGIDERDVNSERLRKSVGVERTMAEDIHHWSECEAIIERLYPELERRLAKVKPDLLIARQGVKLKFDDFQQTTQEHVWPRLNKADLIATARKTWDERRGGRGVRLVGLHVTLLDPQMERQLVLGL
# Target: β subunit of DNA polymerase III of Escherichia coli, P0A988
# Sequence (P0A988 whole entry): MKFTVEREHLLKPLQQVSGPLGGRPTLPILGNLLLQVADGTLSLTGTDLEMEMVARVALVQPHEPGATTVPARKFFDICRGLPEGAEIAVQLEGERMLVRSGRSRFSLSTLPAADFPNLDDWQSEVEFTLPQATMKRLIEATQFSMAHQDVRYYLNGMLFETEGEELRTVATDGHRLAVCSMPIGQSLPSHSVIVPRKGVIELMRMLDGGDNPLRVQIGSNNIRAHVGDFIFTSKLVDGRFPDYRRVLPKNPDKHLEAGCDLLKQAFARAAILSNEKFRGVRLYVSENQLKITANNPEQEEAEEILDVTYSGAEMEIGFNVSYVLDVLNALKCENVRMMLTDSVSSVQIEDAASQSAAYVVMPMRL
protein,measurement,value
B1,growth rate (OD 600 nm) of E. coli on IPTG-induced expression,a clear growth inhibition was observed for the culture expressing the wild type Pol IV protein compared to the one expressing the mutant protein
same,in vitro polymerase activity of Pol IV,the in vitro activity of Pol IV is greatly enhanced by the presence of the β subunit loaded onto a primer/template DNA substrate

# Source: patent US20070275898
